94 variants from the supplement of paper PMC10567573 can be followed below.

Sequences and labels used below:
B1: PRPH (parent)
chain: RTFGPPPSLSPGAFSYSSSSRFSS
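Also: lentivirally expressed fusions sorted by FACS into six bins by GFP to DsRed ratio, PSI derived from sequencing read proportions per bin multiplied by bin number.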

The variants in this data set derive from B1. Kind of data set: protein stability index of a GFP-peptide fusion (GPS, HEK-293T) (PSI 1-6); higher = more stable. The settings on record: c terminus: a fixed tail appended.
Regarding RTFGPPPSLSPGAVSYSSSSRFSS [F14V], the protein stability index amounted to 3.52.
On to RTFGPPPSLSPGAISYSSSSRFSS [F14I], for which the protein stability index is 3.17.
Turning to RTFGPPPSLSPGAYSYSSSSRFSS [F14Y], the protein stability index turned out to be 2.87.
In the case of RTFGPPPSLSPGAHSYSSSSRFSS [F14H] it was 3.7.
To RTFGPPPSLSPGARSYSSSSRFSS [F14R] belongs 4.11; to RTFGPPPSLSPGALSYSSSSRFSS [F14L], 3.4.
As for RTFGPPPSLSPGACSYSSSSRFSS [F14C], the protein stability index was 3.09.
In the case of RTFGPPPSLSPGAWSYSSSSRFSS [F14W] it was 3.22; in that of RTFGPPPSLSPGAGSYSSSSRFSS [F14G], 3.3.
In the case of RTFGPPPSLSPGAMSYSSSSRFSS [F14M] it was 3.28; in that of RTFGPPPSLSPGATSYSSSSRFSS [F14T], 4.16.
RTFGPPPSLSPGAKSYSSSSRFSS [F14K]: the protein stability index is 4.23.
To RTFGPPPSLSPGANSYSSSSRFSS [F14N] belongs 4.03; to RTFGPPPSLSPGAQSYSSSSRFSS [F14Q], 4.01.
With RTFGPPPSLSPGAESYSSSSRFSS [F14E], the protein stability index was 4.21.
For the variant RTFGPPPSLSPGAASYSSSSRFSS [F14A], the protein stability index was 3.53.
For RTFGPPPSLSPGAFPYSSSSRFSS [S15P], the protein stability index was found to be 3.03.
RTFGPPPSLSPGAFTYSSSSRFSS [S15T]: the protein stability index came to 3.48.
In the case of RTFGPPPSLSPGAFLYSSSSRFSS [S15L] it was 2.62; in that of RTFGPPPSLSPGAFYYSSSSRFSS [S15Y], 2.56.
In the case of RTFGPPPSLSPGAFNYSSSSRFSS [S15N] it was 3.37; in that of RTFGPPPSLSPGAFWYSSSSRFSS [S15W], 2.31; in that of RTFGPPPSLSPGAFGYSSSSRFSS [S15G], 3.64.
On to RTFGPPPSLSPGAFEYSSSSRFSS [S15E], for which the protein stability index came to 3.22.
To RTFGPPPSLSPGAFFYSSSSRFSS [S15F] belongs 2.43; to RTFGPPPSLSPGAFAYSSSSRFSS [S15A], 3.27.
To RTFGPPPSLSPGAFKYSSSSRFSS [S15K] belongs 3.29; to RTFGPPPSLSPGAFDYSSSSRFSS [S15D], 3.49; to RTFGPPPSLSPGAFMYSSSSRFSS [S15M], 2.65.
With RTFGPPPSLSPGAFVYSSSSRFSS [S15V], the protein stability index is 2.74.
In the case of RTFGPPPSLSPGAFCYSSSSRFSS [S15C] it was 2.33; in that of RTFGPPPSLSPGAFQYSSSSRFSS [S15Q], 3.18.
In the case of RTFGPPPSLSPGAFIYSSSSRFSS [S15I] it was 2.95.
In the case of RTFGPPPSLSPGAFRYSSSSRFSS [S15R] it was 2.33; in that of RTFGPPPSLSPGAFHYSSSSRFSS [S15H], 2.85.
Turning to RTFGPPPSLSPGCFSYSSSSRFSS [A13C], the protein stability index stood at 2.86.
In the case of RTFGPPPSLSPGYFSYSSSSRFSS [A13Y] it was 3.14.
To RTFGPPPSLSPGNFSYSSSSRFSS [A13N] belongs 3.94; to RTFGPPPSLSPGHFSYSSSSRFSS [A13H], 3.05; to RTFGPPPSLSPGSFSYSSSSRFSS [A13S], 2.73.
In the case of RTFGPPPSLSPGWFSYSSSSRFSS [A13W] it was 2.79; in that of RTFGPPPSLSPGKFSYSSSSRFSS [A13K], 3.42.
For RTFGPPPSLSPGGFSYSSSSRFSS [A13G], the protein stability index came to 3.21.
To RTFGPPPSLSPGLFSYSSSSRFSS [A13L] belongs 3.18.
To RTFGPPPSLSPGRFSYSSSSRFSS [A13R] belongs 3.01.
To RTFGPPPSLSPGQFSYSSSSRFSS [A13Q] belongs 3.62; to RTFGPPPSLSPGDFSYSSSSRFSS [A13D], 3.5.
Turning to RTFGPPPSLSPGEFSYSSSSRFSS [A13E], the protein stability index amounted to 3.51.
Regarding RTFGPPPSLSPGMFSYSSSSRFSS [A13M], the protein stability index was 3.29.
With RTFGPPPSLSPGTFSYSSSSRFSS [A13T], the protein stability index amounted to 3.45.
To RTFGPPPSLSPGFFSYSSSSRFSS [A13F] belongs 2.98.
For RTFGPPPSLSPGPFSYSSSSRFSS [A13P], the protein stability index turned out to be 3.21.
As to RTFGPPPSLSPGVFSYSSSSRFSS [A13V], the protein stability index was 2.94.
Regarding RTFGPPPSLSPGIFSYSSSSRFSS [A13I], the protein stability index came out at 3.33.
As for RTFGPPPSLSMGAFSYSSSSRFSS [P11M], the protein stability index stood at 2.52.
For the variant RTFGPPPSLSAGAFSYSSSSRFSS [P11A], the protein stability index was 3.11.
As for RTFGPPPSLSWGAFSYSSSSRFSS [P11W], the protein stability index is 2.23.
In the case of RTFGPPPSLSFGAFSYSSSSRFSS [P11F] it was 2.11; in that of RTFGPPPSLSVGAFSYSSSSRFSS [P11V], 2.69; in that of RTFGPPPSLSTGAFSYSSSSRFSS [P11T], 2.94.
In the case of RTFGPPPSLSRGAFSYSSSSRFSS [P11R] it was 3.63; in that of RTFGPPPSLSDGAFSYSSSSRFSS [P11D], 3.45; in that of RTFGPPPSLSSGAFSYSSSSRFSS [P11S], 3.04.
In the case of RTFGPPPSLSKGAFSYSSSSRFSS [P11K] it was 2.44; in that of RTFGPPPSLSQGAFSYSSSSRFSS [P11Q], 3.38; in that of RTFGPPPSLSGGAFSYSSSSRFSS [P11G], 2.88.
On to RTFGPPPSLSIGAFSYSSSSRFSS [P11I], for which the protein stability index is 2.46.
Turning to RTFGPPPSLSCGAFSYSSSSRFSS [P11C], the protein stability index was found to be 1.64.
In the case of RTFGPPPSLSEGAFSYSSSSRFSS [P11E], the protein stability index came to 4.
Turning to RTFGPPPSLSHGAFSYSSSSRFSS [P11H], the protein stability index came out at 2.74.
With RTFGPPPSLSNGAFSYSSSSRFSS [P11N], the protein stability index was 3.12.
To RTFGPPPSLSLGAFSYSSSSRFSS [P11L] belongs 2.59; to RTFGPPPSLSYGAFSYSSSSRFSS [P11Y], 2.41.
RTFGPPPSLDPGAFSYSSSSRFSS [S10D]: the protein stability index came to 2.76.
For the variant RTFGPPPSLRPGAFSYSSSSRFSS [S10R], the protein stability index came to 3.15.
On to RTFGPPPSLLPGAFSYSSSSRFSS [S10L], for which the protein stability index worked out at 3.24.
To RTFGPPPSLCPGAFSYSSSSRFSS [S10C] belongs 3.45.
To RTFGPPPSLQPGAFSYSSSSRFSS [S10Q] belongs 3.34; to RTFGPPPSLNPGAFSYSSSSRFSS [S10N], 3.15; to RTFGPPPSLMPGAFSYSSSSRFSS [S10M], 3.61.
In the case of RTFGPPPSLEPGAFSYSSSSRFSS [S10E] it was 3.23; in that of RTFGPPPSLVPGAFSYSSSSRFSS [S10V], 2.78; in that of RTFGPPPSLIPGAFSYSSSSRFSS [S10I], 3.19.
In the case of RTFGPPPSLGPGAFSYSSSSRFSS [S10G], the protein stability index was 3.46.
As to RTFGPPPSLWPGAFSYSSSSRFSS [S10W], the protein stability index was 2.9.
In the case of RTFGPPPSLYPGAFSYSSSSRFSS [S10Y] it was 2.36; in that of RTFGPPPSLKPGAFSYSSSSRFSS [S10K], 3.06.
Regarding RTFGPPPSLHPGAFSYSSSSRFSS [S10H], the protein stability index was 3.13.
On to RTFGPPPSLFPGAFSYSSSSRFSS [S10F], for which the protein stability index is 2.67.
With RTFGPPPSLSPGAFSYCSSSRFSS [S17C], the protein stability index came to 2.85.
In the case of RTFGPPPSLSPGAFSYASSSRFSS [S17A] it was 3.02; in that of RTFGPPPSLSPGAFSYESSSRFSS [S17E], 3.59; in that of RTFGPPPSLSPGAFSYDSSSRFSS [S17D], 3.06.
Consider RTFGPPPSLSPNAFSYSSSSRFSS [G12N], for which the protein stability index stood at 3.14.
